Drawing on patent US20040126819A1, this text covers EC50 (read off the curve) and Kd for one molecule.

Test [1] addresses GDNF receptors on E10 embryonic chick sympathetic neurons. Briefly: steady-state saturation binding of 125I-GDNF to E10 embryonic chick sympathetic neurons, triplicates.
Test [2] shares this target. Briefly: saturation binding of 125I-GDNF to E10 chick sympathetic neurons, 4 C, filtration.

B1: recombinant rat GDNF produced in Sf21 insect cells using a baculovirus expression system (ligand, UniProt Q07731 78-211, looked up)
chain: SPDKQAAALPRRERNRQAAAASPENSRGKGRRGQRGKNRGCVLTAIHLNVTDLGLGYETKEELIFRYCSGSCEAAETMYDKILKNLSRSRRLTSDKVGQACCRPVAFDDDLSFLDDSLVYHILRKHSAKRCGCI
modifications: labeled with Na-^125I by the chloramine-T method where used as tracer
B1: the EC50 (read off the curve) (in general, the concentration giving half of the maximal effect) in test [1] was 400 pM. The Kd (in general, the free concentration of one partner at which half of the binding sites on the other are occupied at equilibrium, for simple one-to-one binding) in test [2] was found to be 400 pM.
